US20180194833A1 (H LUNDBECK A S, published 2018)

Assays:
Human alpha-synuclein = Human alpha-synuclein (human, UniProt P37840 1-140); assay: SPR (BIAcore 3000), antibody captured by goat anti-human IgG, human alpha-synuclein 3.125-100 nM as analyte
Text: Goat anti-human IgG was immobilized on the CM5 chip. […] The sensor surface was regenerated between each cycle.

Mouse alpha-synuclein = Mouse alpha-synuclein (mouse, UniProt O55042 1-140); assay: Fortebio Octetred

| binding result (Human alpha-synuclein) | binding result (Mouse alpha-synuclein) | Binder |
| --- | --- | --- |
| binds |  | Comparator antibody 9E4 (antibody, human IgG1, kappa, V domains shown, also called h9E4; human 9E4) VH: EVQLVESGGGLVQPGGSLRLSCAASGFTFSNYGMSWVRQAPGKGLEWVASISSGGGSTYYPDNVKGRFTISRDNAKNSLYLQMNSLRAEDTAVYYCARGGAGIDYWGQGTLVTVSS VL: DIQMTQSPSSLSASVGDRVTITCKSIQTLLYSSNQKNYLAWFQQKPGKAPKLLIYWASIRKSGVPSRFSGSGSGTDFTLTISSLQPEDLATYYCQQYYSYPLTFGGGTKLEIKR |
|  | binds | GM285 (antibody, human IgG1, kappa, V domains shown, also called mab285) VH: EVQLLESGGGLVQPGGSLRLSCAASGFTFSRFTMTWVRQAPGKGLEWVSAISGSGGGTSYADSVKGRLTVSRDNSKNTLYLQMNSLRAEDTAVYYCAKNWAPFDYWGQGTLVTVSS VL: not shown |
|  | binds | GM37 (antibody, human IgG1, kappa, V domains shown, also called GM37 wild type (wt); GM37wt) VH: EVQLLESGGGLVQTGGSLRLSCAASGFTFSSYAMTWVRQAPGKGLEWVSAIRSNGDRTDYADSVKGRFTISRDNSQNTLYLQMNSLRAEDTAVYYCAKNWAPFDSWGQGTLVTVSS VL: not shown |
